Experimental data from patent US20250027068.
Positions count from the first letter of the chain named.

B1: PRT-191 (protein)
chain: MANQEIRYSEVTPYHVTSVWTKGVTPPANFTQGEDVFHAPYVANQGWYDITKTFNGKDDLLCGAATAGNMLHWWFDQNKDQIKRYLEEHPEKQKINFNGEQMFDVKEAIDTKNHQLDSKLFEYFKEKAFPYLSTKHLGVFPDHVIDMFINGYRLSLTNHGPTPVKEGSKDPRGGIFDAVFTRGDQSKLLTSRHDFKEKNLKEISDLIKKELTEGKALGLSHTYANVRHSINHVINLWGADFDSNGNLKAIYVTDSDSNASIGMKKYFVGVNSAGKVAISAKEIKEDNIGAQVLGLFTLSTGQDSWNQTN
B2: PRT-533 (protein)
chain: MANQEIRYSSDSEWANKKVWVYGITPPEEGAWKYSTYYLPWKKEYGWYDCNKRNPTADGMMCWAATASNLLHWWIAQNKEYIDLYGDKYKGPDKINFNGEQMFDVKEYIDPLDKPQESDIFQCFIDKSFADLSTKHEAGYGDAGINWFIHGIIPSSPAHGPTPVKLDYPYNPAGYFKDVFPRGDGVVLLGNNGDFKELSKERFNETIKDALKNKKAIGLSIGPVNVRSSHVVTIWGAEFDENGDVSYIYMADNNDRWGVGCIRYQIVYEEGGTYTCYKTEIIPSDRPIPINRLVTLELGEEYWKQTNLEHHHHHH
B3: PRT-586 (protein)
chain: MANQEIRYSEETPKTITSVWTKGVTPPTDFIYNEDVLHAPYIANQGWYDITKTFNGKDDLLCGAATAGNMLHWWFDQNKEQIERYLKKHPEKQKINFNGEQMFDVKEAIDTKDSQTDSKLFEYFKDKAFPYLSTKHLGVFPDHVIDMFINGYRLSLTNHGPTPVKRGTKDPRGGIFDAVFTRGDQSKLLTSRHDFKEKTLNEISDLIKQELTEGKALGLSHTYANVRINHVINLWGADFNAEGNLEAIYVTDSDSNASIGMKKYYVGVNSAGKVAISAKEIEGDNIGAQVLGLFTLSTGQDIWEQTNLEHHHHHH
B4: PRT-576 (protein)
chain: B3 chain with E10K, E11A, K14S, T28E, D29N, I42L, D117N, R166E, G167Q, E304Q
B5: PRT-566 (protein)
chain: B3 chain with K14S, D29Q, Y32Q, R84N, K119A, E304N
B6: PRT-595 (protein)
chain: B3 chain with K14S, Y32Q, R84N, K119A, T199N, E304N
B7: PRT-192 (protein)
chain: MANQEIRYSEVTPYHVTSVWTKGVTPPANFTQGEDVFHAPYVANQGWYDITKTFNGKDDLLCGAATAGNMLHWWFDQNKDQIKRYLEEHPEKQKINFNGEQMFDVKEAIDTKNHQLDSKLFEYFKEKAFPYLSTKHLGVFPDHVIDMFINGYRLSLTNHGPTPVKEGSKDPRGGIFDAVFTRGDQSKLLTSRHDFKEKNLKEISDLIKKELTEGKALGLSHTYANVRINHVINLWGADFDSNGNLKAIYVTDSDDKKLTISNASIGMKKYFVGVNSAGKVAISAKEIKEDNIGAQVLGLFTLSTGQDSWNQTN
B8: PRT-193 (protein)
chain: B7 chain with S261G, N262D, A263E, S264R
B9: PRT-526 (protein)
chain: MANQEIRYSEETPKTITSVWTKGVTPPTDFIKNEDVLHAPYIANQGWYDITKTFNGKDDLLCGAATAGNMLHWWFDQNKEEIERYLKKHPEKQKINFNGEQMFDVKEAIDTKDSQTDSALFEYFKDKAFPNLSTKHLGVMPDHVLDMFINGYYLSLGKHGPTPVKRGTKDPRGGIFDAVFTRGDQSKLLTSRHDFKEKTLKEISDLIKQELTEGKALALSHTYANVRINHVINLWGADFDSEGNLEAIYVTDSDSNASIGMKKYYVGVNSAGKVAISAKEIEGDNIGAQVLGLFTLSTGQDIWEQTNLEHHHHHH
B10: PRT-582 (protein)
chain: MANQEIRYSKAKPKVITSVWTKGVTPPTQFTKNEDVFHAPYLANQGWYDITKTFNGKDDLLCGAATAGNMLHWWFDQNKEQIERYLKKHPEKQKINFNGEQMFDVKEAIDTKDSQTNSKLFNYFKDKAFPYLSTKHLGVFPDHVIDMFINGYRLSLTNHGPTPVKEQNKDPRGGIFDDVFTRGDQSKLLTSRHDFKEKTLKEISDLIKQELKEGKALGLSHTYANVRINHVINLWGADFDAEGNLVAIYVTDSDSNASIGMKKYYVGVNSAGKVAISAKEIEDDNIGAQVLGLFTLSTGKDIWEKTNLEHHHHHH
B11: PRT-553 (protein)
chain: MANQEIRYSEETPKTITSIWTKGVTPPTDFIKNEDVLHAPYVANQGWYDITKTFNGKDDLLCGAATAGNMLHWWFDQNKEEIENYLKKHPEKQKINFNGEQMFDVKEAIDTKDSQTDSKLFEYFKDKAFPYLSTKHLGVFPDHVIDMFINGYRLSLTNHGPTPVKRGTKDPRGGIFDAVFTRGDQTKLLTERHDFKEKTLNEISDLIKQELTEGKALGLSHTYANVRINHVINLWGADFNSEGNLEAIYVTDSDSNASIGMKKYYVGVNAAGKVAISAKEIEDDNIGAQVLGLFTLSTGKDIWEQTNLEHHHHHH
B12: PRT-375 (protein)
chain: MSQTEDSESLQRLRDIEDFQAEKKKQNVVYTKWLDGVDVKDHDFRKIVDGNEAYYATPLLNGRGFYDINKDFNRDNDKCAAAVAANMFHYWLDRNRDNVDRFLRQNPEKHGIIELPDGQLKLSDFLNTYESDDGYRDKSKLFDFISENFNGPVWTDKLLDNYINGYAYNYKYGRLIEDSTKNTSKINFFKEVFNEKILTNNHSIRNQNELSVLLSEALYTGKAIGLSYGPAGTRHSLGHIISVWGADLDADGNVVAIYVTDSDDKKLTIGDERVGLKRYKISTDDEGRLRLTAYEETHNTGGQIRGLWTLDTGKQAWADYFDKTEQTGTDQAEQ

Key:
[1] = target: pooled human IgG (human IgG1,2,3 and 4)
[2] = target: pooled human IgG (human IgG1, 2, 3 and 4)

Protein | Enzyme Activity Endpoint Assay: Fab'2 [1] [ng/µL] | Enzyme Activity Endpoint Assay: Fc [1] [ng/µL] | Enzyme Activity Endpoint Assay: IgG [1] [ng/µL] | Enzyme Activity Endpoint Assay: scIgG [1] [ng/µL] | Enzyme Activity Endpoint Assay: Fab′2 [2] [ng/µL] | Enzyme Activity Endpoint Assay: Fc [2] [ng/µL] | Enzyme Activity Endpoint Assay: IgG [2] [ng/µL] | Enzyme Activity Endpoint Assay: scIgG [2] [ng/µL]
B1 | 36 | 183 | 161 | 358 |  |  |  | 
B2 |  |  |  |  | 0 | 0 | 1140 | 0
B3 |  |  |  |  | 478 | 322 | 77 | 458
B4 |  |  |  |  | 903 | 365 | 0 | 0
B5 |  |  |  |  | 621 | 366 | 0 | 0
B6 |  |  |  |  | 1040 | 452 | 0 | 0
B7 | 24 | 204 | 109 | 461 |  |  |  | 
B8 | 39 | 193 | 181 | 355 |  |  |  | 
B9 |  |  |  |  | 246 | 379 | 110 | 627
B10 |  |  |  |  | 28 | 183 | 329 | 754
B11 |  |  |  |  | 79 | 229 | 111 | 764
B12 |  |  |  |  | 170 | 115 | 0 | 180
